Laboratory results from patent publication US20060280740A1.

Columns and labels:
[1] = biological target: KIR2DL1 recombinant protein (entire extracellular domain, produced in E. coli, immobilized on Biacore chip) (human) (UniProt P43626); assay: SPR, KIR2DL1 chip; second Ab after first Ab EB6
[2] = biological target: KIR2DL1 recombinant protein (entire extracellular domain, produced in E. coli, immobilized on Biacore chip) (human) (UniProt P43626); assay: SPR, KIR2DL1 chip; second Ab after first Ab 1-6 F1
[3] = biological target: KIR2DL1 recombinant protein (entire extracellular domain, produced in E. coli, immobilized on Biacore chip) (human) (UniProt P43626); assay: SPR, KIR2DL1 chip; second Ab after first Ab 1-7 F9
[4] = biological target: KIR2DL1 recombinant protein (entire extracellular domain, produced in E. coli, immobilized on Biacore chip) (human) (UniProt P43626); assay: SPR, KIR2DL1 chip; second Ab alone (field of first Ab EB6)
[5] = biological target: KIR2DL1 recombinant protein (entire extracellular domain, produced in E. coli, immobilized on Biacore chip) (human) (UniProt P43626); assay: SPR competition, KIR2DL1 chip; competitor (second Ab) DF200
[6] = biological target: KIR2DL1 recombinant protein (entire extracellular domain, produced in E. coli, immobilized on Biacore chip) (human) (UniProt P43626); assay: SPR competition, KIR2DL1 chip; competitor (second Ab) Pan2D
[7] = biological target: KIR2DL1 recombinant protein (entire extracellular domain, produced in E. coli, immobilized on Biacore chip) (human) (UniProt P43626); assay: SPR competition, KIR2DL1 chip; competitor (second Ab) 1-4 F1
[8] = biological target: KIR2DL1 recombinant protein (entire extracellular domain, produced in E. coli, immobilized on Biacore chip) (human) (UniProt P43626); assay: SPR competition, KIR2DL1 chip; competitor (second Ab) 1-6 F1
[9] = biological target: KIR2DL1 recombinant protein (entire extracellular domain, produced in E. coli, immobilized on Biacore chip) (human) (UniProt P43626); assay: SPR competition, KIR2DL1 chip; competitor (second Ab) 1-7 F9
[10] = biological target: KIR2DL1 recombinant protein (entire extracellular domain, produced in E. coli, immobilized on Biacore chip) (human) (UniProt P43626); assay: SPR, KIR2DL1 chip; second Ab alone (field of first Ab 1-6 F1)
[11] = biological target: KIR2DL1 recombinant protein (entire extracellular domain, produced in E. coli, immobilized on Biacore chip) (human) (UniProt P43626); assay: SPR, KIR2DL1 chip; second Ab alone (field of first Ab 1-7 F9)
[12] = biological target: KIR2DL1 recombinant protein (entire extracellular domain, produced in E. coli, immobilized on Biacore chip) (human) (UniProt P43626); assay: SPR competition, KIR2DL1 chip; competitor (second Ab) EB6 (self)
[13] = biological target: KIR2DL3 recombinant protein (entire extracellular domain, produced in E. coli, immobilized on Biacore chip) (human) (UniProt P43628); assay: SPR, KIR2DL3 chip; second Ab after first Ab 1-4 F1
[14] = biological target: KIR2DL3 recombinant protein (entire extracellular domain, produced in E. coli, immobilized on Biacore chip) (human) (UniProt P43628); assay: SPR, KIR2DL3 chip; second Ab after first Ab 1-6 F1
[15] = biological target: KIR2DL3 recombinant protein (entire extracellular domain, produced in E. coli, immobilized on Biacore chip) (human) (UniProt P43628); assay: SPR, KIR2DL3 chip; second Ab after first Ab 1-7 F9
[16] = biological target: KIR2DL3 recombinant protein (entire extracellular domain, produced in E. coli, immobilized on Biacore chip) (human) (UniProt P43628); assay: SPR competition, KIR2DL3 chip; competitor (second Ab) DF200
[17] = biological target: KIR2DL3 recombinant protein (entire extracellular domain, produced in E. coli, immobilized on Biacore chip) (human) (UniProt P43628); assay: SPR competition, KIR2DL3 chip; competitor (second Ab) Pan2D
[18] = biological target: KIR2DL3 recombinant protein (entire extracellular domain, produced in E. coli, immobilized on Biacore chip) (human) (UniProt P43628); assay: SPR competition, KIR2DL3 chip; competitor (second Ab) 1-4 F1
[19] = biological target: KIR2DL3 recombinant protein (entire extracellular domain, produced in E. coli, immobilized on Biacore chip) (human) (UniProt P43628); assay: SPR competition, KIR2DL3 chip; competitor (second Ab) 1-6 F1
[20] = biological target: KIR2DL3 recombinant protein (entire extracellular domain, produced in E. coli, immobilized on Biacore chip) (human) (UniProt P43628); assay: SPR competition, KIR2DL3 chip; competitor (second Ab) 1-7 F9
[21] = biological target: KIR2DL3 recombinant protein (entire extracellular domain, produced in E. coli, immobilized on Biacore chip) (human) (UniProt P43628); assay: SPR, KIR2DL3 chip; second Ab alone (field of first Ab 1-4 F1)
[22] = biological target: KIR2DL3 recombinant protein (entire extracellular domain, produced in E. coli, immobilized on Biacore chip) (human) (UniProt P43628); assay: SPR, KIR2DL3 chip; second Ab alone (field of first Ab 1-6 F1)
[23] = biological target: KIR2DL3 recombinant protein (entire extracellular domain, produced in E. coli, immobilized on Biacore chip) (human) (UniProt P43628); assay: SPR, KIR2DL3 chip; second Ab alone (field of first Ab 1-7 F9)
[24] = biological target: KIR2DL1 recombinant protein (entire extracellular domain, produced in E. coli, immobilized on Biacore chip) (human) (UniProt P43626); assay: SPR, KIR2DL1 chip; second Ab after first Ab 1-6 F5
[25] = biological target: KIR2DL3 recombinant protein (entire extracellular domain, produced in E. coli, immobilized on Biacore chip) (human) (UniProt P43628); assay: SPR, KIR2DL3 chip; second Ab after first Ab 1-6 F5
[26] = biological target: immobilized KIR 2DS1 (UniProt Q14954); assay: SPR, KIR2DS1 chip; second Ab after first Ab 1-7 F9
[27] = biological target: KIR2DL1 recombinant protein (entire extracellular domain, produced in E. coli, immobilized on Biacore chip) (human) (UniProt P43626); assay: SPR competition, KIR2DL1 chip; competitor (second Ab) EB6
[28] = biological target: KIR2DL3 recombinant protein (entire extracellular domain, produced in E. coli, immobilized on Biacore chip) (human) (UniProt P43628); assay: SPR competition, KIR2DL3 chip; competitor (second Ab) gl183
[29] = biological target: immobilized KIR 2DS1 (UniProt Q14954); assay: SPR competition, KIR2DS1 chip; competitor (second Ab) Pan2D
[30] = biological target: KIR2DL1 recombinant protein (entire extracellular domain, produced in E. coli, immobilized on Biacore chip) (human) (UniProt P43626); assay: SPR competition, KIR2DL1 chip; competitor (second Ab) 1-6 F5
[31] = biological target: KIR2DL3 recombinant protein (entire extracellular domain, produced in E. coli, immobilized on Biacore chip) (human) (UniProt P43628); assay: SPR competition, KIR2DL3 chip; competitor (second Ab) 1-6 F5
[32] = biological target: immobilized KIR 2DS1 (UniProt Q14954); assay: SPR competition, KIR2DS1 chip; competitor (second Ab) 1-4 F1
[33] = biological target: immobilized KIR 2DS1 (UniProt Q14954); assay: SPR competition, KIR2DS1 chip; competitor (second Ab) 1-7 F9
[34] = biological target: KIR2DL1 recombinant protein (entire extracellular domain, produced in E. coli, immobilized on Biacore chip) (human) (UniProt P43626); assay: SPR, KIR2DL1 chip; second Ab alone (field of first Ab 1-6 F5)
[35] = biological target: KIR2DL3 recombinant protein (entire extracellular domain, produced in E. coli, immobilized on Biacore chip) (human) (UniProt P43628); assay: SPR, KIR2DL3 chip; second Ab alone (field of first Ab 1-6 F5)
[36] = biological target: immobilized KIR 2DS1 (UniProt Q14954); assay: SPR, KIR2DS1 chip; second Ab alone (field of first Ab 1-7 F9)
[37] = biological target: KIR2DL1(R131W)-hFc (human) (UniProt P43626); assay: ELISA, KIR2DL1(R131W)-hFc against KIR2DL1-hFc, mAb at 1 µg/ml
[38] = biological target: KIR2DL1 recombinant protein (entire extracellular domain, produced in E. coli, immobilized on Biacore chip) (human) (UniProt P43626); assay: SPR (Biacore), KIR2DL1 immobilized on CM5, soluble antibody 1x10^-7 to 4x10^-10 M
[39] = biological target: KIR2DL3 recombinant protein (entire extracellular domain, produced in E. coli, immobilized on Biacore chip) (human) (UniProt P43628); assay: SPR (Biacore), KIR2DL3 immobilized on CM5, soluble antibody 1x10^-7 to 4x10^-10 M
[40] = biological target: immobilized KIR 2DS1 (UniProt Q14954); assay: SPR competition, KIR2DS1 chip; competitor (second Ab) DF200

Sequence of KIR2DL3 recombinant protein (entire extracellular domain, produced in E. coli, immobilized on Biacore chip) (human) (P43628 22-245): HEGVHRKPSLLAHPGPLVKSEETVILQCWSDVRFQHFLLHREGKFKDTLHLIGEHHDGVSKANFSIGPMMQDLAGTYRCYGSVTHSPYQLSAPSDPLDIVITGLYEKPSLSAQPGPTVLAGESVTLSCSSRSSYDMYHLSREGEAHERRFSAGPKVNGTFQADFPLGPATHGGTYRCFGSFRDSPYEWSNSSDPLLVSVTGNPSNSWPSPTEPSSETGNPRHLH
Sequence of immobilized KIR 2DS1 (Q14954 22-245 limits assumed): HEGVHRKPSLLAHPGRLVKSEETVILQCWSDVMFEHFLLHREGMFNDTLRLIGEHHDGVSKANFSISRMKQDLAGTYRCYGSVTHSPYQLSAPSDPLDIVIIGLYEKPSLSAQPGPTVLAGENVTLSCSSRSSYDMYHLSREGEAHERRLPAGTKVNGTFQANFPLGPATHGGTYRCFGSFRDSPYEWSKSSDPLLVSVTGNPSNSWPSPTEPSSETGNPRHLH
Sequence of KIR2DL1 recombinant protein (entire extracellular domain, produced in E. coli, immobilized on Biacore chip) (human) (P43626 22-245): as the sequence (Q14954 22-245 limits assumed) above, with K70T, L90V, P114L, T154P, N163D, R182H, E216K counted along it
Sequence of KIR2DL1(R131W)-hFc (human) (P43626 22-245 R152W): as the sequence (Q14954 22-245 limits assumed) above, with K70T, L90V, P114L, R131W, T154P, N163D, R182H, E216K counted along it

RU, second antibody with first antibody present [2] | RU, second antibody with first antibody present [3] | % inhibition of second antibody binding [5] | % inhibition of second antibody binding [6] | % inhibition of second antibody binding [7] | % inhibition of second antibody binding [8] | % inhibition of second antibody binding [9] | RU, direct binding of second antibody [10] | RU, direct binding of second antibody [11] | RU, second antibody with first antibody present [13] | RU, second antibody with first antibody present [14] | RU, second antibody with first antibody present [15] | % inhibition of second antibody binding [16] | % inhibition of second antibody binding [17] | % inhibition of second antibody binding [18] | % inhibition of second antibody binding [19] | % inhibition of second antibody binding [20] | RU, direct binding of second antibody [21] | RU, direct binding of second antibody [22] | RU, direct binding of second antibody [23] | Substance | also measured
320 RU | 180 RU | 60% | 40% | 48% | 23% | 65% | 260 RU | 460 RU | – | – | – | – | – | – | – | – | – | – | – | EB6 (IgG1 anti KIR2DL1) (antibody) | RU, second antibody with first antibody present [1]: 200 RU; RU, direct binding of second antibody [4]: 460 RU; % inhibition of second antibody binding [12]: 57%
– | – | – | – | – | – | – | – | – | 330 RU | 570 RU | 200 RU | 8% | 40% | 75% | 18% | 76% | 1240 RU | 620 RU | 800 RU | GL183 (IgG1 anti KIR2DL3) (antibody) | –
310 RU | 545 RU | – | 80% | 92% | 15% | 27% | 350 RU | 600 RU | 210 RU | 760 RU | 450 RU | – | 75% | 75% | 16% | 62% | 1140 RU | 790 RU | 770 RU | monoclonal antibody DF200 produced by hybridoma DF200 | RU, second antibody with first antibody present [24]: 290 RU; RU, second antibody with first antibody present [25]: 760 RU; RU, second antibody with first antibody present [26]: 1090 RU; % inhibition of second antibody binding [27]: 90%; % inhibition of second antibody binding [28]: 20%; % inhibition of second antibody binding [29]: 70%; % inhibition of second antibody binding [30]: 15%; % inhibition of second antibody binding [31]: 4%; % inhibition of second antibody binding [32]: 87%; % inhibition of second antibody binding [33]: 15%; RU, direct binding of second antibody [34]: 350 RU; RU, direct binding of second antibody [35]: 800 RU; RU, direct binding of second antibody [36]: 900 RU; reduction in binding compared to wild type [37]: 10%; Kd [38]: 10.9 nM; Kd [39]: 2 nM
440 RU | 534 RU | 90% | – | 95% | 12% | 2% | 475 RU | 545 RU | 890 RU | 1090 RU | 830 RU | 95% | – | 68% | 8% | 15% | 2400 RU | 990 RU | 870 RU | monoclonal antibody NKVSF1 | RU, second antibody with first antibody present [24]: 440 RU; RU, second antibody with first antibody present [25]: 950 RU; RU, second antibody with first antibody present [26]: 1200 RU; % inhibition of second antibody binding [27]: 90%; % inhibition of second antibody binding [28]: 85%; % inhibition of second antibody binding [40]: 100%; % inhibition of second antibody binding [30]: 13%; % inhibition of second antibody binding [31]: 18%; % inhibition of second antibody binding [32]: 100%; % inhibition of second antibody binding [33]: 45%; RU, direct binding of second antibody [34]: 475 RU; RU, direct binding of second antibody [35]: 990 RU; RU, direct binding of second antibody [36]: 1350 RU; reduction in binding compared to wild type [37]: 10%
